Experimental data taken from IntAct's records for PubMed 23463101.

B1: Trinucleotide repeat-containing gene 6C protein (Homo sapiens), Q9HCJ0-1 (parent)
chain: MATGSAQGNFTGHTKKTNGNNGTNGALVQSPSNQSALGAGGANSNGSAARVWGVATGSSSGLAHCSVSGGDGKMDTMIGDGRSQNCWGASNSNAGINLNLNPNANPAAWPVLGHEGTVATGNPSSICSPVSAIGQNMGNQNGNPTGTLGAWGNLLPQESTEPQTSTSQNVSFSAQPQNLNTDGPNNTNPMNSSPNPINAMQTNGLPNWGMAVGMGAIIPPHLQGLPGANGSSVSQVSGGSAEGISNSVWGLSPGNPATGNSNSGFSQGNGDTVNSALSAKQNGSSSAVQKEGSGGNAWDSGPPAGPGILAWGRGSGNNGVGNIHSGAWGHPSRSTSNGVNGEWGKPPNQHSNSDINGKGSTGWESPSVTSQNPTVQPGGEHMNSWAKAASSGTTASEGSSDGSGNHNEGSTGREGTGEGRRRDKGIIDQGHIQLPRNDLDPRVLSNTGWGQTPVKQNTAWEFEESPRSERKNDNGTEAWGCAATQASNSGGKNDGSIMNSTNTSSVSGWVNAPPAAVPANTGWGDSNNKAPSGPGVWGDSISSTAVSTAAAAKSGHAWSGAANQEDKSPTWGEPPKPKSQHWGDGQRSNPAWSAGGGDWADSSSVLGHLGDGKKNGSGWDADSNRSGSGWNDTTRSGNSGWGNSTNTKANPGTNWGETLKPGPQQNWASKPQDNNVSNWGGAASVKQTGTGWIGGPVPVKQKDSSEATGWEEPSPPSIRRKMEIDDGTSAWGDPSNYNNKTVNMWDRNNPVIQSSTTTNTTTTTTTTTSNTTHRVETPPPHQAGTQLNRSPLLGPGRKVSSGWGEMPNVHSKTENSWGEPSSPSTLVDNGTAAWGKPPSSGSGWGDHPAEPPVAFGRAGAPVAASALCKPASKSMQEGWGSGGDEMNLSTSQWEDEEGDVWNNAASQESTSSCSSWGNAPKKGLQKGMKTSGKQDEAWIMSRLIKQLTDMGFPREPAEEALKSNNMNLDQAMSALLEKKVDVDKRGLGVTDHNGMAAKPLGCRPPISKESSVDRPTFLDKDGGLVEEPTPSPFLPSPSLKLPLSHSALPSQALGGIASGLGMQNLNSSRQIPSGNLGMFGNSGAAQARTMQQPPQPPVQPLNSSQPSLRAQVPQFLSPQVQAQLLQFAAKNIGLNPALLTSPINPQHMTMLNQLYQLQLAYQRLQIQQQMLQAQRNVSGSMRQQEQQVARTITNLQQQIQQHQRQLAQALLVKQPPPPPPPPHLSLHPSAGKSAMDSFPSHPQTPGLPDLQTKEQQSSPNTFAPYPLAGLNPNMNVNSMDMTGGLSVKDPSQSQSRLPQWTHPNSMDNLPSAASPLEQNPSKHGAIPGGLSIGPPGKSSIDDSYGRYDLIQNSESPASPPVAVPHSWSRAKSDSDKISNGSSINWPPEFHPGVPWKGLQNIDPENDPDVTPGSVPTGPTINTTIQDVNRYLLKSGGKLSDIKSTWSSGPTSHTQASLSHELWKVPRNSTAPTRPPPGLTNPKPSSTWGASPLGWTSSYSSGSAWSTDTSGRTSSWLVLRNLTPQIDGSTLRTLCLQHGPLITFHLNLTQGNAVVRYSSKEEAAKAQKSLHMCVLGNTTILAEFAGEEEVNRFLAQGQALPPTSSWQSSSASSQPRLSAAGSSHGLVRSDAGHWNAPCLGGKGSSELLWGGVPQYSSSLWGPPSADDSRVIGSPTPLTTLLPGDLLSGESL

Tests used:
pabp_drome pAbp, P21187 [1] = variants of: B1; details: with pabp_drome pAbp
Sequence of pabp_drome pAbp, P21187 (P21187 whole entry): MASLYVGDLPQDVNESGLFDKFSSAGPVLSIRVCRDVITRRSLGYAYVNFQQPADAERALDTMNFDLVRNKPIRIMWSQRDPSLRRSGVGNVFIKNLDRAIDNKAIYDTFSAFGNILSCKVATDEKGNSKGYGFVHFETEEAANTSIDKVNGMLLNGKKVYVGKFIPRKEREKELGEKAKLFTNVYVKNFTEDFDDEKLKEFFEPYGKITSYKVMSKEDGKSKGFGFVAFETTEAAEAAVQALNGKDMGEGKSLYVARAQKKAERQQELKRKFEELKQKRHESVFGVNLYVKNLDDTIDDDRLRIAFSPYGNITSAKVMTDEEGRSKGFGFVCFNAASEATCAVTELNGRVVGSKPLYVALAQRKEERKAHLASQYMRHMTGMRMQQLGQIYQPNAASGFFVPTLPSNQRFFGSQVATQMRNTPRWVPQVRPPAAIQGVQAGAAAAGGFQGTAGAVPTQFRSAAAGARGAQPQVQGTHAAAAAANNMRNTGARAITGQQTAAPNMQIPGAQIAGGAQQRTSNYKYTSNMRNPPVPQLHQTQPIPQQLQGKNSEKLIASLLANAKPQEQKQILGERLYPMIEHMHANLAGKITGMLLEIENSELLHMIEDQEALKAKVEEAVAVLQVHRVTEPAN

[2] = variants of: B1; details: with cnot1_human CNOT1, A5YKK6
Sequence of cnot1_human CNOT1, A5YKK6 (A5YKK6 whole entry): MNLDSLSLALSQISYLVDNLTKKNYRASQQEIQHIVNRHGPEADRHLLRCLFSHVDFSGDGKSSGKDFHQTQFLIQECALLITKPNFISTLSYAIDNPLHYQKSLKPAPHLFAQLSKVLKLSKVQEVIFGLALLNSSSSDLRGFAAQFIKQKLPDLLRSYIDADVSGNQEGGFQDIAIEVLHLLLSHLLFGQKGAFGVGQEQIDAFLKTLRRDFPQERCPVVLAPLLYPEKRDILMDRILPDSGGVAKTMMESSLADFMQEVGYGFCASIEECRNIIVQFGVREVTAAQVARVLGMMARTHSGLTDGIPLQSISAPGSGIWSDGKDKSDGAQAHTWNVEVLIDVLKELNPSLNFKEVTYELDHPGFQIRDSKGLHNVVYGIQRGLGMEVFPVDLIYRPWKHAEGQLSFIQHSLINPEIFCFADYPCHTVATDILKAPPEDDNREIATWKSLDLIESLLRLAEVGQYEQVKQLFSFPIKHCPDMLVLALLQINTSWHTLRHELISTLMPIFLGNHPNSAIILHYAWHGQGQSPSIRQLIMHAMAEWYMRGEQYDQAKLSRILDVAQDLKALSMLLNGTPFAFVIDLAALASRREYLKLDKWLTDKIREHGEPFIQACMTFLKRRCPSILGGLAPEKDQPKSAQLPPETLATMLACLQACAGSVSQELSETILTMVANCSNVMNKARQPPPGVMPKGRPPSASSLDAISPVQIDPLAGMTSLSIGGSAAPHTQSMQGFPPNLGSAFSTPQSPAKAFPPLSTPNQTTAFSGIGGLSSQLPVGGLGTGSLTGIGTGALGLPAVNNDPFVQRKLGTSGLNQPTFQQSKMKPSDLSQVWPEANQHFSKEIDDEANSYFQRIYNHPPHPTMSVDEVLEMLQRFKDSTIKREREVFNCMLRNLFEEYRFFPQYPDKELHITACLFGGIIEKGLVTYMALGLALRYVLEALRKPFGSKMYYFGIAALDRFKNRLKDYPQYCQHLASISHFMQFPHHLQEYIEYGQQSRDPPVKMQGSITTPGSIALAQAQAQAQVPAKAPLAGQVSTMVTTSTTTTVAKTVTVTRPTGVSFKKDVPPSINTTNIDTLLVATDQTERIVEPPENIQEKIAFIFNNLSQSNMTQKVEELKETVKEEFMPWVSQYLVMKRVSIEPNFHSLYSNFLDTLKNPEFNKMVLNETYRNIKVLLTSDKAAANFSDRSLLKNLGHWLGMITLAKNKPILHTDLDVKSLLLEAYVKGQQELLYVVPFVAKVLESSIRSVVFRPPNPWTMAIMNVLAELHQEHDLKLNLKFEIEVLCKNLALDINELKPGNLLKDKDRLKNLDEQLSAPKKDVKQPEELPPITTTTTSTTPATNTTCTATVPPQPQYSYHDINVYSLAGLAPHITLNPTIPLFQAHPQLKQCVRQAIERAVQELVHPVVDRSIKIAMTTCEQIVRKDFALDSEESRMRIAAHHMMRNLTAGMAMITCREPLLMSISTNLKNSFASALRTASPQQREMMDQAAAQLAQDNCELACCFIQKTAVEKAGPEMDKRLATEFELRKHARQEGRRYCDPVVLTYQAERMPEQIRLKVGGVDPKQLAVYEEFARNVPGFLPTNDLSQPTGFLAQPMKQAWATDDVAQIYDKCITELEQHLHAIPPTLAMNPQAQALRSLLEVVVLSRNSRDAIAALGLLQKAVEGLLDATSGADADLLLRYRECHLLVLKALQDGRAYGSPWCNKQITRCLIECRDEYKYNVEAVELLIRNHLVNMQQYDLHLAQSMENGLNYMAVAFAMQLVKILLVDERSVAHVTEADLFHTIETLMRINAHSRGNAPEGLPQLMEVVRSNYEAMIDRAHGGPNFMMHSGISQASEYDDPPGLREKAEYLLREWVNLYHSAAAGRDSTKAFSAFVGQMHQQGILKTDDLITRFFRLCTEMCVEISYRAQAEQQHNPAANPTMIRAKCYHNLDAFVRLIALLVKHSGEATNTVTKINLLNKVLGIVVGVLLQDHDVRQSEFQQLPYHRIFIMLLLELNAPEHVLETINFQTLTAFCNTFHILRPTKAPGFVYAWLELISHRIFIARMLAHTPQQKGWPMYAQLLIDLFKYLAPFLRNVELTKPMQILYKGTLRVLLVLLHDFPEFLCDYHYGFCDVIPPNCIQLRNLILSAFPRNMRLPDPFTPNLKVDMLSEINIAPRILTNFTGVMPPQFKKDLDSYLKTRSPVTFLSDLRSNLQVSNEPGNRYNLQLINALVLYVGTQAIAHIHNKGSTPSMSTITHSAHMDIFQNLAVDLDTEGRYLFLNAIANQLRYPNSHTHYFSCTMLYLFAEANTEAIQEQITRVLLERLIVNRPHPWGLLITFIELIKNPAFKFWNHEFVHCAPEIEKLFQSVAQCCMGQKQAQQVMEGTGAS

pabp_drome pAbp, P21187 [3] = variants of: B1; details: with pabp_drome pAbp; remark: listed apart in the source
pabp_drome pAbp, P21187 [4] = variants of: B1; details: with pabp_drome pAbp; remark: listed apart in the source

Row | effect of a mutation on the interaction (pabp_drome pAbp, P21187 [1]) | effect of a mutation on the interaction [2] | effect of a mutation on the interaction (pabp_drome pAbp, P21187 [3]) | effect of a mutation on the interaction (pabp_drome pAbp, P21187 [4]) | Variant
1 | disrupting interaction |  |  |  | F1389A
2 |  | disrupting interaction | decreasing interaction | decreasing interaction | Q1294A;S1295A;R1296A;L1297A;Q1299A;W1300A
